Assay [1] has as its target T1, HLA-A*02:01 (Homo sapiens, UniProt P04439, D140Y/D185E/D98H/E176V/E277Q/G131W/G231S/I119V/I121R/I166T/I218V/L300P/L318F/N151K/N90K/P208A/P217A/Q86G/Q94H/R138H/R169H/T345S).
T1 construct: Plasmid DNA encoding the BirA tagged luminal domain of MHC-I heavy chains HLA-A*02:01; made in house; Drosophila S2 cells (TAPBPR); gTAX synthetic (Genscript)
It is filed as binding.

For a further assay, the target named is T2, gTAX/HLA-A*02:01 (Homo sapiens, UniProt P04439, D140Y/D185E/D98H/E176V/E277Q/G131W/G231S/I119V/I121R/I166T/I218V/L300P/L318F/N151K/N90K/P208A/P217A/Q86G/Q94H/R138H/R169H/T345S).
T2 construct: Plasmid DNA encoding the luminal domain of class I MHC (MHC-I) heavy chain HLA-A*02:01; made in house; Drosophila S2 cells (TAPBPR); gTAX synthetic (Genscript)
Kind of assay: Native gel electrophoresis of TAPBPR-catalysed peptide exchange on gTAX/HLA-A*02:01 (Example 1). Type of assay: biochemical. The settings on record: overnight incubation, 10-fold molar excess of peptide, with TAPBPR.

The target in assay [2] is T1, HLA-A*02:01. Type of assay: binding. The settings on record: p*MHC-I/gTAX incubated with peptide and TAPBPR, 12% native gel.
Setting [3] is: p/HLA-A*02:01 prepared by TAPBPR-mediated peptide exchange, 10-fold molar excess of peptide, overnight 4° C., DSF first derivative, ± SD of 3 replicates.

Read-outs that look alike come from different tables or passages of the source.

ALNTLVKQL [Peptide 1]: in the assay with HLA-A*02:01 [1] (setting [3]), the Tm turned out to be 48.3 ± 0.6 °C.

For ALNTPKDHI [Peptide 26], the Tm with HLA-A*02:01 [1] (setting [3]) worked out at 44.4 ± 0.6 °C.

In the case of GLIAIVMVTI [Peptide 23], the Tm in the assay with HLA-A*02:01 [1] (setting [3]) was 40.4 ± 0.6 °C.

Take GLMWLSYFI [Peptide 6]: the Tm with HLA-A*02:01 [1] (setting [3]) stood at 41.4 ± 7.9 °C.

With GMSRIGMEV [Peptide 8], the Tm in the assay with HLA-A*02:01 [1] (setting [3]) came to 48.3 ± 0.0 °C.

For IITTDNTFV [Peptide 24], in the assay with HLA-A*02:01 [1] (setting [3]), the Tm is 42.4 ± 0.6 °C.

In the case of ILLLDQALV [Peptide 10], the Tm with HLA-A*02:01 [1] (setting [3]) was found to be 52.3 ± 0.0 °C.

On to ILLNKHIDA [Peptide 16], for which the Tm with HLA-A*02:01 [1] (setting [3]) worked out at 43.4 ± 0.0 °C.

Turning to KLPDDFTGCV [Peptide 13], in the assay with HLA-A*02:01 [1] (setting [3]), the Tm was determined as 53.3 ± 0.0 °C.

As to LALLLLDRL [Peptide 27], the Tm with HLA-A*02:01 [1] (setting [3]) is 43.3 ± 1.5 °C.

On to LITGRLQSL [Peptide 29], for which the Tm with HLA-A*02:01 [1] (setting [3]) amounted to 44.4 ± 0.6 °C.

In the case of LLLDRLNQL [Peptide 7], the Tm with HLA-A*02:01 [1] (setting [3]) stood at 54.3 ± 0.6 °C.

LLLLDRLNQL [Peptide 22]: the Tm in the assay with HLA-A*02:01 [1] (setting [3]) is 42.4 ± 0.6 °C.

Take LLLQYGSFC [Peptide 31]: in the assay with HLA-A*02:01 [1] (setting [3]), the Tm was 47.3 ± 0.6 °C.

Consider LQLPQGTTL [Peptide 28], for which, in the assay with HLA-A*02:01 [1] (setting [3]), the Tm was 44.4 ± 1.1 °C.

For NLNESLIDL [Peptide 4], the Tm with HLA-A*02:01 [1] (setting [3]) came out at 47.3 ± 0.6 °C.

Take RLNEVAKNL [Peptide 3]: in the assay with HLA-A*02:01 [1] (setting [3]), the Tm came out at 46.3 ± 0.6 °C.

Consider SIIAYTMSL [Peptide 14], for which, in the assay with HLA-A*02:01 [1] (setting [3]), the Tm worked out at 53.3 ± 0.6 °C.

Take SLPGVFCGV [Peptide 11]: in the assay with HLA-A*02:01 [1] (setting [3]), the Tm was 59.3 ± 0.0 °C.

As to SMWALIISV [Peptide 25], the Tm with HLA-A*02:01 [1] (setting [3]) worked out at 52.3 ± 0.6 °C.

For the sequence TLACFVLAAV [Peptide 12], the Tm at HLA-A*02:01 [1] worked out at 53.3 ± 0.6 °C.

As for TLMNVLTLV [Peptide 15], on HLA-A*02:01 [1], the Tm amounted to 61.2 ± 0.6 °C.

For TTLPKGFYA [Peptide 32], in the assay with HLA-A*02:01 [1] (setting [3]), the Tm amounted to 46.3 ± 0.6 °C.

Turning to VLNDILSRL [Peptide 2], in the assay with HLA-A*02:01 [1] (setting [3]), the Tm was found to be 50.3 ± 0.0 °C.

With VLQLPQGTTL [Peptide 21], in the assay with HLA-A*02:01 [1] (setting [3]), the Tm is 39.4 ± 0.0 °C.

Consider VVFLHVTYV [Peptide 17], for which the Tm at HLA-A*02:01 [1] stood at 52.3 ± 0.0 °C.

As for WLMWLIINL [Peptide 9], the Tm with HLA-A*02:01 [1] (setting [3]) was 42.4 ± 4.0 °C.

Regarding “YPNVNIHNF [non-specific peptide, non-specific gp29 peptide used as a negative control]”, the “peptide exchange on gTAX/HLA-A*02:01 (native gel)” value with gTAX/HLA-A*02:01 is recorded as “no exchange was observed”. The “band of exchanged pMHC-I on native gel” value with HLA-A*02:01 [2] is “no condensed band”.

(Values after US20210371498A1, “MHC CLASS I COMPOSITIONS AND METHODS” (priority 2020, published 2021).)
